Experimental findings from patent US20060172938A1 (RESEARCH FOUNDATION OF STATE UNIVERSITY OF NEW YORK, published 2006) are described below.

Where no end group is shown, it is not given here.

For test [1], the target named is T1, Seprase on seprase-expressing LOX cells (human (human melanoma cell line LOX), UniProt Q12884 1-760).
T1 construct: whole, on cells
T1 sequence (looked up): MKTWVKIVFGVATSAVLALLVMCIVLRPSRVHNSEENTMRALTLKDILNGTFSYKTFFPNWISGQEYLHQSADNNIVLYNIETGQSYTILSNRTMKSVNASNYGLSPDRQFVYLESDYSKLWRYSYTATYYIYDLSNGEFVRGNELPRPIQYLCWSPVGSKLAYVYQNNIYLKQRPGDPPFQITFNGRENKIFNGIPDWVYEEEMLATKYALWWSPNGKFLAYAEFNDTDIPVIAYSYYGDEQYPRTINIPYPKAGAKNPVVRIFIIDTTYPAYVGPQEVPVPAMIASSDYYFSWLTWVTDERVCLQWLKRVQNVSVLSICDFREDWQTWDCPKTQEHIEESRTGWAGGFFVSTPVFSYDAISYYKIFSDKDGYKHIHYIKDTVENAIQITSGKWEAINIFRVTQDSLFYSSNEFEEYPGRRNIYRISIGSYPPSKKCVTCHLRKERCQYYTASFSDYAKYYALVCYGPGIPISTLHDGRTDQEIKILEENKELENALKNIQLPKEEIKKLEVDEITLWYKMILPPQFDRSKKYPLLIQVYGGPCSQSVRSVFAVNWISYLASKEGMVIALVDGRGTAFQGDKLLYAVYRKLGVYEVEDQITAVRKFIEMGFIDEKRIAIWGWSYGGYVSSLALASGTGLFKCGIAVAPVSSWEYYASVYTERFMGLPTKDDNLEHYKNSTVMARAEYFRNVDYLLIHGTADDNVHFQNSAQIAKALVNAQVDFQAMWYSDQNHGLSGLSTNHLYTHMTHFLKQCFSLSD
The test can be described thus: ELISA and immunofluorescence on seprase-expressing LOX cells. On the technique in general: An ELISA detects its analyte on a solid surface through an enzyme-linked reagent.

The target of test [2] is T2, Native seprase isolated from LOX cells (human (isolated from the human melanoma …, UniProt Q12884 1-760)).
T2 construct: Native enzyme purified from LOX cells; used as bait for phage panning and in the prolyl dipeptidase and gelatinase assays; also called purified seprase; seprase/FAP
T2 sequence (looked up): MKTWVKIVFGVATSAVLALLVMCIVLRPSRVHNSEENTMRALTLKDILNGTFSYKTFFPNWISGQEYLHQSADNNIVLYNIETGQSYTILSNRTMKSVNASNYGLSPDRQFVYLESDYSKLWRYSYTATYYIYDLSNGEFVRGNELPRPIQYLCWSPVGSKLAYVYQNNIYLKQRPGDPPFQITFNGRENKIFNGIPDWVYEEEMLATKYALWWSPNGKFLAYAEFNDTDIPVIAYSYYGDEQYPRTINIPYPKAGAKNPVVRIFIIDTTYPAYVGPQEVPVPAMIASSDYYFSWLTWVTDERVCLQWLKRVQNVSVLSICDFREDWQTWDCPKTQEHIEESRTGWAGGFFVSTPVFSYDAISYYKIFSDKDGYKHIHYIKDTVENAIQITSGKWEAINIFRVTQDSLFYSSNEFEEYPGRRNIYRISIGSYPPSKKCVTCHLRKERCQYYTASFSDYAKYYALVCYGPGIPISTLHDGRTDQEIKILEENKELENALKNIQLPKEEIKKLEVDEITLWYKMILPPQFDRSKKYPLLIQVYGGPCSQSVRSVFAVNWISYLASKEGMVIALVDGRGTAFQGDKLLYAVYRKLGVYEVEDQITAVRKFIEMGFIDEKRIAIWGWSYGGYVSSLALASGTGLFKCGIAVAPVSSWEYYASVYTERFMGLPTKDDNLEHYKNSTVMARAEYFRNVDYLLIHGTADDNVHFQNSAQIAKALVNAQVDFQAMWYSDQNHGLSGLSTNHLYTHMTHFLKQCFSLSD
As to the kind of experiment: phage display panning and phage ELISA on seprase-coated wells (positive clone: OD405 experiment/OD405 control >3.0); peptide displayed on phage.

The target in test [3] is T2, Native seprase isolated from LOX cells. The test can be described thus: cell-based or functional assay.
Test [4] deals with T1, Seprase on seprase-expressing LOX cells. As to the kind of experiment: cell-based or functional assay.
A further test addresses DPP4. The test can be described thus: enzyme inhibition kinetics, prolyl peptidase activity of DPP4 with Gly-Pro-pNA, time progress curves (FIG. 1E).
For test [5], the target named is T2, Native seprase isolated from LOX cells. The test can be described thus: inhibition kinetic analysis; reference is DPP4.
Test [6] shares this target. As to the kind of experiment: enzyme inhibition kinetics, prolyl dipeptidase activity of seprase with Gly-Pro-pNA, time progress curves (FIG. 1D).
Test [7] has as its target T1, Seprase on seprase-expressing LOX cells. The test can be described thus: ELISA and immunofluorescence on LOX cells.

Chain of DPP4 (P27487 whole entry): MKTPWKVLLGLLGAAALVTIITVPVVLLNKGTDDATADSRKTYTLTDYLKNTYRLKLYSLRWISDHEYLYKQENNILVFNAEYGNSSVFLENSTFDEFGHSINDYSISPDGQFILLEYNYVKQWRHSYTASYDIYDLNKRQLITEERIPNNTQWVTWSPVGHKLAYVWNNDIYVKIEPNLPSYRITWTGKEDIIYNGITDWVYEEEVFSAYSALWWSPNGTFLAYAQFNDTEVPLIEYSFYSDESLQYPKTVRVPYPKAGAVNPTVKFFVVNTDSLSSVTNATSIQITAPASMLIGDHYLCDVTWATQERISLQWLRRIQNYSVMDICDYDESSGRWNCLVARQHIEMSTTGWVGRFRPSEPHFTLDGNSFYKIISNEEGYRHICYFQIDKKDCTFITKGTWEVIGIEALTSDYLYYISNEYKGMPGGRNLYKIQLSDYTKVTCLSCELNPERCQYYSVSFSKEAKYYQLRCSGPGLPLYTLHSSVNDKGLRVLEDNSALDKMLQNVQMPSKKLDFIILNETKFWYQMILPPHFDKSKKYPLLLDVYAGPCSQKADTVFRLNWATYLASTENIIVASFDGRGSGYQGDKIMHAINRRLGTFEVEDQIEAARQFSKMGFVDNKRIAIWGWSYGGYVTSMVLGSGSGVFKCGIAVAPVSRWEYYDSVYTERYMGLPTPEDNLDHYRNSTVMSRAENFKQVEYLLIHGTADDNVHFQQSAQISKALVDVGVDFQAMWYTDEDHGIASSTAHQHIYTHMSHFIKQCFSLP

As for GGAGDMWERVSRG, the binding result in test [1] is “binds”.

B1: DMWERVSR (peptide)
peptide: DMWERVSR
notes: tested as a synthetic linear peptide in the enzyme assays
For B1, the binding result in test [2] is given as “binds”.

For the molecule CDMWERVSRC (also: cyclic peptide, mode of cyclisation not given here) [cyclic peptide CDMWERVSRC], in test [3], the “IC50, inhibition of the gelatinolytic activity of seprase (DQ-gelatin assay)” value is under 10 µM. For the same molecule, in test [4], the “IC50 on the overall collagen degradation by LOX cells (Bodipy FL C5 labelled type I collagen films)” value was about 200 µM. The results for the Ki (with DPP4; in test [6]) were 40 µM and 400 nM, respectively. Besides, the “fold more effective against seprase than DPP4” value in test [5] stood at 100 times.

On to RKISASEFDRPLR (Control) [control peptide RKISASEFDRPLR], for which the binding result in test [7] is “no binding”.

B2: DLDYLSKF (peptide)
peptide: DLDYLSKF
notes: as for B1
Regarding B2, the binding result in test [2] is recorded as “binds”.
